The values below come from patent publication US20220089698A1 (published 2022).

Usually EC50 stands for the concentration at which the effect is half-maximal. A lower EC50 goes with a more potent agent. As usually defined, the Kd is the free concentration of one partner at which half of the binding sites on the other are occupied at equilibrium, for simple one-to-one binding. A low value points to a tighter complex.

T1: Cyno FcγRIIB (cynomolgus macaque, UniProt A0A140HDN4 43-217)
T1 construct: also called cynomolgus macaque FcγRIIB
T1 sequence: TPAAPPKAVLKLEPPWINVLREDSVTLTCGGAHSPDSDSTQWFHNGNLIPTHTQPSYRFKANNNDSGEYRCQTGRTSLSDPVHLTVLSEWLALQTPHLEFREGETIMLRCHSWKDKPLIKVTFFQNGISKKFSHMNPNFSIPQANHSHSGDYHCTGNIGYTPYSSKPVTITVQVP

T2: Cyno FcγRIIA (cynomolgus macaque, UniProt A0A140HDM9 28-216)
T2 construct: also called cynomolgus macaque FcγRIIA
T2 sequence: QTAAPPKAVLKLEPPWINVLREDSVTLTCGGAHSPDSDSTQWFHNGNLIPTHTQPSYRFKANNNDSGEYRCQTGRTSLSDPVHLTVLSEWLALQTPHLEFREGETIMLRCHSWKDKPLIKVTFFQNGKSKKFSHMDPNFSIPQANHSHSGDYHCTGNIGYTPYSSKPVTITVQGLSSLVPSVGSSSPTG

B1: Antibody A-1 (antibody, human IgG1, kappa)
heavy: QVQLLQSGAAVTKPGASVRVSCEASGYNIRDYFIHWWRQAPGQGLQWVGWINPKTGQPNNPRQFQGRVSLTRHASWDFDTFSFYMDLKALRSDDTAVYFCARQRSDYWDFDVWGSGTQVTVSSASTKGPSVFPLAPSSKSTSGGTAALGCLVKDYFPEPVTVSWNSGALTSGVHTFPAVLQSSGLYSLSSVVTVPSSSLGTQTYICNVNHKPSNTKVDKKVEPKSCDKTHTCPPCPAPELLAGPDVFLFPPKPKDTLMISRTPEVTCVVVDVSHEDPEVKFNWYVDGVEVHNAKTKPREEQYNSTYRVVSVLTVLHQDWLNGKEYKCKVSNKALPLPEEKTISKAKGQPREPQVYTLPPSREEMTKNQVSLTCLVKGFYPSDIAVEWESNGQPENNYKTTPPVLDSDGSFFLYSKLTVDKSRWQQGNVFSCSVLHEALHSHYTQKSLSLSPGK
light: DIQMTQSPSSLSASVGDTVTITCQANGYLNWYQQRRGKAPKLLIYDGSKLERGVPSRFSGRRWGQEYNLTINNLQPEDIATYFCQVYEFVVPGTRLDLKRTVAAPSVFIFPPSDEQLKSGTASVVCLLNNFYPREAKVQWKVDNALQSGNSQESVTEQDSKDSTYSLSSTLTLSKADYEKHKVYACEVTHQGLSSPVTKSFNRGEC
B2: 1.33.35-1 (antibody, human IgG1, kappa, V domains shown)
VH: QVQLVQSGAEVKKPGASVRVSCKASGYNIRDYFIHWWRQAPGQGLQWVGWINPKTGQPNNPRQFQGRVTLTRHASWDFDTFSFYMDLKALRSDDTATYFCARQRSDYWDFDVWGSGTQVTVSS
VL: DIQMTQSPSSLSASVGDRVTITCQANGYLNWYQQKPGKAPKLLIYDGSNLETGVPSRFSGSRWGQEYTLTISSLQPEDIATYFCQVYEFVGPGTNLDIKR
B3: 1.35.35-1 (antibody, human IgG1, kappa, V domains shown)
VH: B2 VH with I34M, L70M, K88S, A89R, S105T, S115Q, Q118M
VL: B2 VL
B4: 1.36.35-1 (antibody, human IgG1, kappa, V domains shown)
VH: B2 VH with I34M, L70M, F83A, K88S, A89R, S105T, S115Q, Q118M
VL: B2 VL
B5: 1.34.35-1 (antibody, human IgG1, kappa, V domains shown)
VH: B2 VH with T97V, S105T
VL: B2 VL
B6: 1.1.36-1 (antibody, human IgG1, kappa)
heavy: B1 heavy
light: DIQMTQSPSSLSASVGDRVTITCQANGYLNWYQQKPGKAPKLLIYDGSNLETGVPSRFSGSRWGQEYTLTISSLQPEDIATYFCQVYEFVTPGTNLDIKRTVAAPSVFIFPPSDEQLKSGTASVVCLLNNFYPREAKVQWKVDNALQSGNSQESVTEQDSKDSTYSLSSTLTLSKADYEKHKVYACEVTHQGLSSPVTKSFNRGEC
B7: 1.7.1-1 (antibody, human IgG1, kappa)
heavy: B1 heavy with A10E, T12K
light: B1 light
B8: 1.5.1-1 (antibody, human IgG1, kappa)
heavy: B1 heavy with L5V, E23K
light: B1 light
B9: 1.32.36-1 (antibody, human IgG1, kappa)
heavy: B1 heavy with L5V, A10E, S105T
light: B6 light
B10: 1.9.1-1 (antibody, human IgG1, kappa)
heavy: B1 heavy with L5V, A10E, T12K, E23K
light: B1 light
B11: 1.35.36-1 (antibody, human IgG1, kappa)
heavy: QVQLVQSGAEVKKPGASVRVSCKASGYNIRDYFMHWWRQAPGQGLQWVGWINPKTGQPNNPRQFQGRVTMTRHASWDFDTFSFYMDLSRLRSDDTATYFCARQRTDYWDFDVWGQGTMVTVSSASTKGPSVFPLAPSSKSTSGGTAALGCLVKDYFPEPVTVSWNSGALTSGVHTFPAVLQSSGLYSLSSVVTVPSSSLGTQTYICNVNHKPSNTKVDKKVEPKSCDKTHTCPPCPAPELLAGPDVFLFPPKPKDTLMISRTPEVTCVVVDVSHEDPEVKFNWYVDGVEVHNAKTKPREEQYNSTYRVVSVLTVLHQDWLNGKEYKCKVSNKALPLPEEKTISKAKGQPREPQVYTLPPSREEMTKNQVSLTCLVKGFYPSDIAVEWESNGQPENNYKTTPPVLDSDGSFFLYSKLTVDKSRWQQGNVFSCSVLHEALHSHYTQKSLSLSPGK
light: B6 light
B12: 1.2.1-1 (antibody, human IgG1, kappa)
heavy: B1 heavy with A10E, T12K, Q118M
light: B1 light
B13: 1.11.1-1 (antibody, human IgG1, kappa)
heavy: B1 heavy with I34M, F83A
light: B1 light
B14: 1.31.36-1 (antibody, human IgG1, kappa)
heavy: B1 heavy with L5V, A10E, V97T
light: B6 light
B15: Antibody A-1 (antibody, human IgG1, kappa)
heavy: B1 heavy
light: B1 light
B16: 1.34.36-1 (antibody, human IgG1, kappa)
heavy: B1 heavy with L5V, A10E, T12K, E23K, S69T, S105T
light: B6 light
B17: 1.33.36-1 (antibody, human IgG1, kappa)
heavy: B1 heavy with L5V, A10E, T12K, E23K, S69T, V97T
light: B6 light
B18: 1.3.1-1 (antibody, human IgG1, kappa)
heavy: B1 heavy with Q3S
light: B1 light
B19: 1.10.1-1 (antibody, human IgG1, kappa)
heavy: B1 heavy with I34M
light: B1 light
B20: 1.2.2-1 (antibody, human IgG1)
heavy: B1 heavy with A10E, T12K, Q118M
VL: DIQMTQSPSSLSASVGDTVTITCQANGYLNWYQQKPGKAPKLLIYDGSKLERGVPSRFSGRRWGQEYNLTINNLQPEDIATYFCQVYEFVVPGTKVDIK
B21: 1.8.1-1 (antibody, human IgG1, kappa)
heavy: B1 heavy with L5V, A10E
light: B1 light
B22: 1.4.1-1 (antibody, human IgG1, kappa)
heavy: B1 heavy with L5V
light: B1 light
B23: 1.36.36-1 (antibody, human IgG1, kappa)
heavy: B11 heavy with F83A
light: B6 light
B24: 1.6.1-1 (antibody, human IgG1, kappa)
heavy: B1 heavy with A10E
light: B1 light

Residue numbers refer to the chain shown, from its start.

The first assay concerns the target HIV gp120 Bal (HIV-1).
Assay: not given
B1 had an EC50 of 0.06 nM.

A further assay addresses HIV gp120 CAAN (HIV-1).
Assay: not given
Molecule B1 yielded an EC50 of 2.17 nM.

Another assay concerns the target HIV gp120 REJO (HIV-1).
Assay: not given
For B1, the EC50 was 2.37 nM.

A further assay deals with HIV gp120 Bal (HIV). The assay is described as follows: single-point ELISA. (An ELISA detects its analyte on a solid surface through an enzyme-linked reagent.)
B2: the “ELISA (A450)” value was 1.03 A450.
For the molecule B3, the “ELISA (A450)” value turned out to be 0.88 A450.
On to B4, for which the “ELISA (A450)” value amounted to 0.89 A450.
With B5, the “ELISA (A450)” value worked out at 0.94 A450.
The same measure, in the same setting: then B6, with 0.93 A450; and B7, with 0.98 A450.
On the same count and under the same terms, the figure for B8 is 0.92 A450.
The same measure, in the same setting: the figure for B9 is 0.92 A450; for B10 it is 1.08 A450; for B11 it is 0.85 A450.
On to B12, for which the “ELISA (A450)” value was 0.93 A450.
For B13, the “ELISA (A450)” value turned out to be 0.93 A450.
Regarding B14, the “ELISA (A450)” value turned out to be 1.06 A450.
B15: the “ELISA (A450)” value turned out to be 0.91 A450.
Still for that read-out and setting: then B16, with 0.94 A450; and B17, with 0.94 A450; and B18, with 0.97 A450.
Still for that read-out and setting: then B19, with 0.95 A450; and B20, with 0.91 A450; and B21, with 0.86 A450.
Same read-out and setting: the figure for B22 is 1.04 A450.
Regarding B23, the “ELISA (A450)” value is 1.12 A450.
Still for that read-out and setting: the figure for B24 is 0.95 A450.

The target in the next assay is HIV gp120 CAAN (HIV). The assay is described as follows: single-point ELISA.
Regarding B2, the “ELISA (A450)” value was determined as 0.81 A450.
Turning to B3, the “ELISA (A450)” value is 0.67 A450.
On to B4, for which the “ELISA (A450)” value was 0.36 A450.
Still for that read-out and setting: then B5, with 0.77 A450.
The same measure, in the same setting: then B6, with 0.88 A450; and B7, with 1.04 A450; and B8, with 1.07 A450.
With B9, the “ELISA (A450)” value turned out to be 0.64 A450.
For the molecule B10, the “ELISA (A450)” value came to 0.98 A450.
Same read-out and setting: then B11, with 0.67 A450.
Same read-out and setting: then B12, with 1.01 A450; and B13, with 0.75 A450; and B14, with 0.9 A450.
Still for that read-out and setting: the figure for B15 is 1.06 A450; for B16 it is 0.71 A450; for B17 it is 0.82 A450.
Turning to B18, the “ELISA (A450)” value came out at 0.94 A450.
Take B19: the “ELISA (A450)” value was determined as 0.94 A450.
The same measure, in the same setting: the figure for B20 is 0.8 A450.
Consider B21, for which the “ELISA (A450)” value worked out at 0.9 A450.
Turning to B22, the “ELISA (A450)” value was 0.96 A450.
Same read-out and setting: then B23, with 0.34 A450; and B24, with 0.9 A450.

The target of the next assay is T1, Cyno FcγRIIB. Briefly: SPR (Biacore 4000), antibody amine coupled to CM4 chip, receptor as analyte, steady-state fit. In general terms: In SPR one partner is held on a chip, and binding of the other changes the refractive index at the surface.
Molecule B1 showed a Kd of 240 nM.

Another assay has as its target T2, Cyno FcγRIIA. The description is as above.
The molecule B1 yielded a Kd of 1100 nM. This lies in the single-digit micromolar range.
